This is an account of results in article PMC3538135.

This data set deals with CD4 (recombinant CD4 antigen) (UniProt P01730 26-396). The data set is described as follows: ellipsometry.

For GGGGTTGGTTGTGTTGGGTGTTGTGTCCAACCCCC (ssDNA, 5' thiol-C6) [IFN-gamma aptamer (nonsense control)], the binding result is on record as “no binding”.
